According to the supplement of paper PMC10065799, “High-throughput profiling of sequence recognition by tyrosine kinases and SH2 domains using bacterial peptide display” (eLife, 2023):

What was measured:
[1] = tested on: AncSZ; test: phosphorylation enrichment, bacterial display (enrichment ratio); higher = better substrate or ligand; peptides without Tyr show the background
[2] = molecular target: EPHB1 (UniProt P54762); test: as above
[3] = molecular target: EPHB2 (UniProt P29323); test: as above
[4] = molecular target: FGFR1 (UniProt P11362); test: as above
[5] = molecular target: FGFR3 (UniProt P22607); test: as above
[6] = tested on: Fer (mouse); test: as above
[7] = molecular target: Fes (UniProt P07332); test: as above
[8] = molecular target: Fyn (UniProt P06241); test: as above
[9] = molecular target: Hck (UniProt P08631); test: as above
[10] = molecular target: Jak2 (UniProt O60674); test: as above
[11] = molecular target: MERTK (UniProt Q12866); test: as above
[12] = tested on: c-Abl (mouse); test: as above
[13] = tested on: c-Src; test: as above
[14] = molecular target: Grb2 SH2 (UniProt P62993); test: SH2 binding enrichment of the phosphorylated peptide, bacterial display (enrichment ratio); higher = better substrate or ligand; peptides without Tyr show the background
[15] = molecular target: SHP2-C SH2; test: as above
[16] = molecular target: c-Src SH2; test: as above
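Throughout, for SH2 binding enrichment of the phosphorylated peptide, bacterial display: peptide library displayed on the E. coli surface as eCPX fusions, selected cells deep-sequenced, score is each peptide's frequency after selection divided by its frequency in the input.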
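Throughout, for phosphorylation enrichment, bacterial display: 11-residue human phosphosite peptides and single-mutation variants displayed on the E. coli surface, counted by deep sequencing, each peptide's frequency after selection divided by its frequency in the unselected input library; frequency after pTyr selection over input frequency; kinase dosed for 20-30% of maximal phosphorylation in three min.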

Chain of Hck (P08631 whole entry, looked up): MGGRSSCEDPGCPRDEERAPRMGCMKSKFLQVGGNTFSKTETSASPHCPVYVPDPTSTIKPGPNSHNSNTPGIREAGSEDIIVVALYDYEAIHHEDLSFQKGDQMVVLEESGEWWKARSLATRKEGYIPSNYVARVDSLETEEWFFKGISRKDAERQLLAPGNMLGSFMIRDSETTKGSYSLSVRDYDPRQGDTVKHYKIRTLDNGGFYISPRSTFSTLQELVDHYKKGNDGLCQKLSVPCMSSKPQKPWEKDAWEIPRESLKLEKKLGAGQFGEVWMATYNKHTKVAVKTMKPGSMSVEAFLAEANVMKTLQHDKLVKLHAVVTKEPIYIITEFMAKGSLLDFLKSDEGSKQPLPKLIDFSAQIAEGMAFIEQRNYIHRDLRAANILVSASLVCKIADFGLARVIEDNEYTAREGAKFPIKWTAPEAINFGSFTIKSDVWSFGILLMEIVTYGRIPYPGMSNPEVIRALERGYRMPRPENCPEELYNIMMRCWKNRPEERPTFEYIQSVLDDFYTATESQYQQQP
Chain of Fyn (P06241 whole entry, looked up): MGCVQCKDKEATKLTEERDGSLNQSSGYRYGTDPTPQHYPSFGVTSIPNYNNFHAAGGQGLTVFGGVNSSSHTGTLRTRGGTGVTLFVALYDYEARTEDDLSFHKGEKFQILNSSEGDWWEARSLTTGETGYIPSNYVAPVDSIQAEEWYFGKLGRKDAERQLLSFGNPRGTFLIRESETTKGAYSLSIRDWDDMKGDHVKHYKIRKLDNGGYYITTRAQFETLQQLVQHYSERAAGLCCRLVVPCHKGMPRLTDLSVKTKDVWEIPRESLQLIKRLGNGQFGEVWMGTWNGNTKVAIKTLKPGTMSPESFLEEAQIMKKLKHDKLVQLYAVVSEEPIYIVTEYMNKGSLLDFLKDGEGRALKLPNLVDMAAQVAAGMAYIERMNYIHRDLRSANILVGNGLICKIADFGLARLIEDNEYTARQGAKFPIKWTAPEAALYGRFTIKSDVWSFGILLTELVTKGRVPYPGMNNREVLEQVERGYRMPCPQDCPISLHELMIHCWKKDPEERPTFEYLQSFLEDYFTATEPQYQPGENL
Chain of FGFR3 (P22607 whole entry, looked up): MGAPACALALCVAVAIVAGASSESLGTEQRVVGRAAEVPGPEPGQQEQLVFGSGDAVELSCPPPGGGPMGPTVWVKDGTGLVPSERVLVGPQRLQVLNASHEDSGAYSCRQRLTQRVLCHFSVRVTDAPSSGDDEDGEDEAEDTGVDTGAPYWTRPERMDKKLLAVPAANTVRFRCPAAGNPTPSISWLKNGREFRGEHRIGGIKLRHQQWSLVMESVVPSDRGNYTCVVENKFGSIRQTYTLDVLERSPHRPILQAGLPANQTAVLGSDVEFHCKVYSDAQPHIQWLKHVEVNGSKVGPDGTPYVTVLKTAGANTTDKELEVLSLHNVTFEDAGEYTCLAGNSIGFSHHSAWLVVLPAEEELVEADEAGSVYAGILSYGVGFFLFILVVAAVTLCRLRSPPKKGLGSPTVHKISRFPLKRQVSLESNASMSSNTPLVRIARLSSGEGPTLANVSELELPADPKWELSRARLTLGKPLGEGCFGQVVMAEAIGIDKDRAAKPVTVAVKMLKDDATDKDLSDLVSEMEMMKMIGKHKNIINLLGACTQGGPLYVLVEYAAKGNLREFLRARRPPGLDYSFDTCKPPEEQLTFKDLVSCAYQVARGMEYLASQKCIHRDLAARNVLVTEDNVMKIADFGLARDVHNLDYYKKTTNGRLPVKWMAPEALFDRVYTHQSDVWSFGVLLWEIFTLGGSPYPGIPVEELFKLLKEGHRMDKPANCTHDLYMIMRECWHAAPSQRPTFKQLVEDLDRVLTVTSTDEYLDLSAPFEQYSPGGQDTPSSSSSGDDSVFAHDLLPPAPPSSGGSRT
Chain of MERTK (Q12866 whole entry, looked up): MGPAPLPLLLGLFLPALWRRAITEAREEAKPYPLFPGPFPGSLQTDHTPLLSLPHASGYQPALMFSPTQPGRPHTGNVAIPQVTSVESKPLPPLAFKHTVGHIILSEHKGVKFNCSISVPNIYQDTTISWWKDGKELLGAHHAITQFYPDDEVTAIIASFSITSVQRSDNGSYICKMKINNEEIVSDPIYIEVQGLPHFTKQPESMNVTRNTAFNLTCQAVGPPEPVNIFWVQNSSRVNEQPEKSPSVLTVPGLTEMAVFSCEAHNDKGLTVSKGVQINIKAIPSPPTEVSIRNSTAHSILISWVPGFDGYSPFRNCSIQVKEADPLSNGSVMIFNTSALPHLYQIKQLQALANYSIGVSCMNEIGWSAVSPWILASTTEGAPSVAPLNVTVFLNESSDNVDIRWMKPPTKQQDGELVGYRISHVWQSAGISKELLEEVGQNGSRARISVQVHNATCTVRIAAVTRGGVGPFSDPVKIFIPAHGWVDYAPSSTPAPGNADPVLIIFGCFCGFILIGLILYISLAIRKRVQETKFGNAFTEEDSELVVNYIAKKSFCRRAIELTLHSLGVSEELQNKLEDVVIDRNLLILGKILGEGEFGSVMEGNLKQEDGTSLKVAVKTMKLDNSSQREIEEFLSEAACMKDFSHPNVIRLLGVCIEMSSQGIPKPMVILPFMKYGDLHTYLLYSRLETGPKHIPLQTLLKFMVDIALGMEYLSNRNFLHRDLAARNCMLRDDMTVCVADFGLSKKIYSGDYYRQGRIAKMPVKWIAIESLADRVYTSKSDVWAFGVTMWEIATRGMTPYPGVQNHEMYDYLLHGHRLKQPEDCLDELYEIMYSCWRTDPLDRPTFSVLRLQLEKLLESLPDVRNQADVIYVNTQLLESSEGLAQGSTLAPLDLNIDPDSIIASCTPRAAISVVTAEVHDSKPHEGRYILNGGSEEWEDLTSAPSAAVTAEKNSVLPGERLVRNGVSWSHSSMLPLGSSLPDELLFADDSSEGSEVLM
Chain of EPHB1 (P54762 whole entry, looked up): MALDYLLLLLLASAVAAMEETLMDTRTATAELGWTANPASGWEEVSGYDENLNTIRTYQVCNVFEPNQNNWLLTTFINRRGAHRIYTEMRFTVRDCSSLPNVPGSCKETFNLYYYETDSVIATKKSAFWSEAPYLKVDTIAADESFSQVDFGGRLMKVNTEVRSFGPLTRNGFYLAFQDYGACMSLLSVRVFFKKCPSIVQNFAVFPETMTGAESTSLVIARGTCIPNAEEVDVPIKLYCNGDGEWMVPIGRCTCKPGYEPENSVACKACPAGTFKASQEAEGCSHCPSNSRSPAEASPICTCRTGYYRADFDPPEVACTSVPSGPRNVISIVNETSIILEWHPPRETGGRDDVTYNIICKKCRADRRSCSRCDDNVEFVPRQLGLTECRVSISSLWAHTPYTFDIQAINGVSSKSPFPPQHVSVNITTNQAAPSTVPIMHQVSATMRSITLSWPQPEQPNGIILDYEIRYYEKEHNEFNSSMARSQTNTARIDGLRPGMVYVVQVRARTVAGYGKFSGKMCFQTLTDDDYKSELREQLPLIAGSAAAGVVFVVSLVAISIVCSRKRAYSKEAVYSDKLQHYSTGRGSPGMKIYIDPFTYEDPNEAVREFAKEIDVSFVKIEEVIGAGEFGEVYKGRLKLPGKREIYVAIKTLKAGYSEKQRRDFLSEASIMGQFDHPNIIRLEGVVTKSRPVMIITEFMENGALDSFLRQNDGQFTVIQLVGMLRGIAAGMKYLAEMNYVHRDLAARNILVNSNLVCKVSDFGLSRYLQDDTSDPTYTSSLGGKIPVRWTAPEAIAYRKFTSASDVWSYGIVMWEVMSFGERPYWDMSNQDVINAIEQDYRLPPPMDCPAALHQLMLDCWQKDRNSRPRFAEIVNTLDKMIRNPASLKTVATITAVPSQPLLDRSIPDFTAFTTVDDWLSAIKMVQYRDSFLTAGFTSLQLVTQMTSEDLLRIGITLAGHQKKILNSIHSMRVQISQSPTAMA
Chain of Fes (P07332 whole entry, looked up): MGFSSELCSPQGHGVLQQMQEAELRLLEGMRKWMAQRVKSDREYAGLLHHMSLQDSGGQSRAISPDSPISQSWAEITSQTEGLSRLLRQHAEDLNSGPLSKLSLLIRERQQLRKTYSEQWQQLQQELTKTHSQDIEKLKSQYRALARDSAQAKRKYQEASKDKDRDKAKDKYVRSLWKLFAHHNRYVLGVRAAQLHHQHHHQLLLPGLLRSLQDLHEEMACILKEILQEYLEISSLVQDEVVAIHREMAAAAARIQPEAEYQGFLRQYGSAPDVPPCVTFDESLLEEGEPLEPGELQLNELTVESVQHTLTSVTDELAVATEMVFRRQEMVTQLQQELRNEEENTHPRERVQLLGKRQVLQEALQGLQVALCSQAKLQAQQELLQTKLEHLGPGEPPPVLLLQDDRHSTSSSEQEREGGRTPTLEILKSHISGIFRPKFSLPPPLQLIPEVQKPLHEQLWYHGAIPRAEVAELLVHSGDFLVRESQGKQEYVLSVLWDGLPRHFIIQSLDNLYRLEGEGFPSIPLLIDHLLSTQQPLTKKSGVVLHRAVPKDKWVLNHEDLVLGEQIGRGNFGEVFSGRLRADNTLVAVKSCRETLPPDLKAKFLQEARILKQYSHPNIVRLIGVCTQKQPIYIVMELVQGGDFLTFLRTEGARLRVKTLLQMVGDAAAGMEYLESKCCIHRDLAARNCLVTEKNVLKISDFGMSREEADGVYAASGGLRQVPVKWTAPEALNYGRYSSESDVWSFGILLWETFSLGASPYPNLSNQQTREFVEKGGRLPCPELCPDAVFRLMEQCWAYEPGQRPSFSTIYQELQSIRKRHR

SH2 binding enrichment [14]	SH2 binding enrichment [15]	SH2 binding enrichment [16]	Sequence	phosphorylation enrichment [1]	phosphorylation enrichment [2]	phosphorylation enrichment [3]	phosphorylation enrichment [4]	phosphorylation enrichment [5]	phosphorylation enrichment [6]	phosphorylation enrichment [7]	phosphorylation enrichment [8]	phosphorylation enrichment [9]	phosphorylation enrichment [10]	phosphorylation enrichment [11]	phosphorylation enrichment [12]	phosphorylation enrichment [13]
1.09	0.784	0.677	NTGGFYDLFGG [PTPN11_Y63_D61G_YF]	1.05	0.829	0.899	0.478	0.719	3.82	1.18	7.59	5.68	1.1	9.2	0.836	4.17
1	0.793	0.613	ASFSLYEPAKM [MKI67_Y340_P338S]	1.27	6.24	5.28	0.518	0.563	9.33	1.28	1.27	3.48	0.954	0.769	0.825	1.25
1.05	0.779	0.774	QRRFLYFFSFL [PTEN_Y176_V175L_YF]	1.61	0.761	0.817	0.978	1.16	0.862	1.85	0.795	0.68	1.5	0.886	1.09	0.567
0.965	0.872	0.644	HLAQRYLIWEC [SCN5A_Y694_R689H]	1.62	1.03	0.944	0.788	1.26	0.616	1.65	0.953	0.79	1.02	0.533	0.929	0.503
0.768	0.635	0.521	QRTMKYTTATE [MCCC1_Y41_G46E]	1.43	0.791	1.43	0.683	1.11	0.607	1.23	0.781	0.966	0.975	0.862	0.496	0.706
0.9	0.879	0.774	AKNKDYMSIIR [GNE_Y197]	0.585	0.851	0.553	0.432	0.585	0.473	0.677	0.409	0.483	0.706	0.468	0.676	0.452
1.01	0.686	0.542	CCKNRYDKDKP [THAP1_Y14_G9C]	0.455	0.29	0.28	0.465	0.419	0.345	0.5	0.33	0.384	0.429	0.486	0.381	0.345
0.711	0.488	0.55	MVIPNYSSRTE [UROC1_Y185]	0.535	0.477	0.462	0.406	0.416	0.435	0.642	0.406	0.329	0.486	0.425	0.438	0.446
0.956	0.647	1.01	ADEEYYEIIAA [FEStide_no-pY_2014]	3.85	1.02	0.795	9.19	7.62	5.58	1.48	2.17	2.32	1.31	1.53	1.14	2.47
0.827	0.497	0.395	AGITAYQSCLQ [ADGRA2_Y377]	1.12	0.685	0.717	0.562	0.951	0.63	1.3	0.633	0.568	1.03	0.59	0.918	0.518
0.705	0.476	0.465	FRARAYGFRGP [CHGA_Y381]	0.839	0.472	0.506	0.497	0.427	0.532	0.747	0.676	0.569	0.686	0.748	0.658	0.651
0.623	0.805	0.672	KNKELYSDPFD [PDE10A_Y300_L303P]	0.877	0.878	1.37	0.706	0.935	0.983	0.886	0.443	0.824	0.763	0.786	0.592	0.629
0.825	0.698	0.575	GRPMDYHVSIT [OTOF_Y254_Q255H]	0.732	0.532	0.453	0.453	0.577	0.559	0.923	0.456	0.479	0.83	0.414	0.626	0.4
0.779	0.738	0.43	PLDAEYFTLQI [TP53_Y327_G325A]	2.57	0.876	0.826	8.68	6.59	0.883	1.63	2.47	1.57	3.1	0.603	1.29	4.2
1.78	1.9	2.4	CTTILYNYMCN [TP53_Y234_H233L]	1.18	0.958	0.766	0.94	0.894	1.2	1.06	0.745	1.14	1.16	2.36	0.615	1.24
0.875	0.882	0.564	ALWFIYLHTRS [ENG_Y614_S615L_YF]	1.2	0.585	0.583	0.409	0.778	0.485	1.37	0.433	0.428	1.13	0.422	0.979	0.411
0.926	0.842	1.3	CTTIHYNYMGN [TP53_Y234_C238G]	0.915	0.85	0.62	0.532	0.653	0.763	0.987	0.402	0.462	0.865	0.633	0.657	0.425

SH2 binding enrichment [14]	SH2 binding enrichment [15]	SH2 binding enrichment [16]	Sequence	phosphorylation enrichment [1]	phosphorylation enrichment [2]	phosphorylation enrichment [3]	phosphorylation enrichment [4]	phosphorylation enrichment [5]	phosphorylation enrichment [6]	phosphorylation enrichment [7]	phosphorylation enrichment [8]	phosphorylation enrichment [9]	phosphorylation enrichment [10]	phosphorylation enrichment [11]	phosphorylation enrichment [12]	phosphorylation enrichment [13]
0.876	0.758	0.465	EYFDGYWEYSV [ITGA2B_Y265_G267E]	4.06	2.02	3.58	13.8	12	1.22	1.72	5.41	4.33	5.73	2	1.54	6.02
1.47	1.14	0.883	CEHRGFLYLAI [TEK_Y897_Y897F]	0.971	0.464	0.466	0.419	0.698	0.545	1.16	0.372	0.453	0.801	0.442	0.947	0.564
0.756	0.63	0.43	ALAHKYHGGGG [HBB_Y146]	0.621	0.333	0.349	0.537	0.343	0.361	0.578	0.426	0.417	0.503	0.461	0.534	0.383
0.869	0.551	0.378	SNYRAYATEPH [TNNI3_Y29]	0.49	0.372	0.452	0.422	0.447	0.379	0.475	0.404	0.382	0.435	0.397	0.503	0.362
0.78	0.609	0.402	KPLMPYMRYSR [SMARCE1_Y73]	0.787	0.353	0.449	0.449	0.431	0.384	0.761	0.432	0.435	0.626	0.467	0.635	0.52
0.755	0.977	0.624	KPGVNYYFRVS	1.15	0.534	0.739	0.623	0.7	0.483	1.37	0.368	0.423	1.16	0.392	0.732	0.385
0.928	0.573	0.404	SHLEDYPFNAE [AKR1B10_Y310]	1.01	0.568	0.511	0.489	0.771	0.594	1.14	0.517	0.504	1.03	0.413	0.713	0.396
0.897	0.625	0.687	QNAGDYYDLYG [PTPN11_Y62_T59A]	4.8	15.5	13.6	19.5	20.3	1.56	1.25	5.41	5.32	3.1	3	1.04	4.65
1.09	0.985	0.836	KPSLKYVTYGN [GALNTL5_Y404_G401S]	0.577	0.334	0.349	0.4	0.516	0.417	0.65	0.379	0.462	0.443	0.348	0.408	0.387
0.684	0.643	0.434	HPWPRYTTRAP [FNDC1_Y1281_Q1280R]	0.802	0.509	0.713	0.515	0.619	0.449	0.907	0.796	0.849	0.518	0.605	0.646	0.654
0.7	0.664	1.34	DNAYQYMLTDR [MYH7_Y164]	1.23	0.61	0.461	3.6	2.3	2.74	0.859	0.658	0.608	0.85	1.27	0.526	0.767
1.25	0.641	0.713	LKVKAYRFSIS [LCT_Y974]	0.911	0.672	0.498	0.9	0.835	0.52	1.22	0.648	0.6	1.3	0.493	0.824	0.463
0.681	0.662	0.471	IEEGTYGVAYR [CDK11B_Y449_V452A]	1.24	0.686	2.44	0.494	0.635	5.71	1	7.54	5.91	0.928	2.22	0.836	5.77
0.79	0.76	2.31	DHKRQYELLKL [KIF4B_Y684_R680H]	0.472	0.448	0.429	0.342	0.52	0.505	0.697	0.395	0.415	0.514	0.367	0.511	0.411
0.954	1.17	0.577	FSTSPYLLEAA [BRIP1_Y921_YF]	0.782	0.488	0.494	0.408	0.667	0.475	0.962	3.49	0.557	0.724	0.437	0.458	1.57
0.805	0.662	0.592	EVQKDYEHLFK [PAM16_Y77_N76D]	0.885	0.511	0.525	0.498	0.582	0.421	0.804	0.478	0.514	0.71	0.462	0.62	0.491
